Patent US20230242902A1, “A HIGHLY ERROR-PRONE […] R[…] FOR TARGETED CONTINUOUS EVOLUTION IN VIVO” (The Regents of the University of California, priority 2017, published 2023)

Test system: p2-encoded leu2*
Test: p2 leu2* fluctuation tests in GA-Y021 (p2 mutation rate reporter strain)
Type: cell-based, S. cerevisiae
Conditions: for Per-base substitution rate pf p2: TP-DNAP2 variant in trans, wt TP-DNAP2 in cis, 36 replicates, (95% C.I.); for Fold increase: p2 substitution rate over no variant in trans
From the text: For fluctuation tests used to measure p2 mutation rates, leu2* served as a marker for detecting mutational events. leu2* is a disabled version of LEU2, where Q180 is replaced with a TAA stop codon. Q180 is a permissive site where mutation to any other codon other than TAG and TGA results in functional reversion to LEU2. These mutational events can be detected by plating scores of parallel cultures on medium lacking leucine and counting the number distribution of functional LEU2 mutants.
For TP-DNAP2 library screening, each library member was subjected to small-scale leu2* fluctuation tests with six replicates. 190 library members from each yeast library transformation were arrayed and inoculated into liquid SC medium lacking uracil and histidine, and passaged three times at 1:10,000 dilutions. mKate2 fluorescence was measured at every passage on a microplate reader (TECAN Infinite® 200 PRO, settings: λex=588, λem=633) to track p2 copy number stabilization. To perform fluctuation tests, each library member was diluted 1:10,000 into liquid SC medium buffered to pH 5.8 and lacking uracil, histidine, tryptophan, and dilutions were split into six 100 μL replicates. Cultures were grown for 48 hours at 30° C. to reach saturation. Saturated cultures were washed with 200 μL 0.9% NaCl to remove residual leucine and resuspended in 35 μL of 0.9% NaCl. 10 μL of this resuspension was spot plated onto solid SC medium buffered to pH 5.8 and lacking uracil, histidine, tryptophan and leucine. Spot plates were allowed to dry and incubated at 30° C. Colonies were counted after 5 days. Colony counts were used to calculate the expected number of LEU2 functional mutants (m), using the p0 method (Foster, 2006, Methods Enzymol, 409:195-213).
To precisely measure p1 and p2 per-base substitution mutation rates, several modifications were made to the small-scale protocol. First, 36 replicates were performed for reconfirmation of candidate TP-DNAP2 mutators, and 48 replicates for genomic and mutual orthogonality experiments. Titers were also determined for each strain after spot plating by pooling the residual volume from 4 replicates and plating dilutions on YPD. The expected number of LEU2 functional mutants (m) was determined by the Ma-Sandri-Sarkar maximum likelihood estimator (as calculated by the FALCOR tool and corrected for partial plating (Foster, 2006, Methods Enzymol, 409:195-213; Sarkar et al., 1992, Genetica, 85:173-179; Hall et al., 2009, Bioinformatics, 25:1564-1565). The mean mKate2 fluorescence was determined from 50,000 event counts on Attune™ NxT Flow Cytometer and converted to p2 copy number by using a calibration curve. To determine per-base substitution rates, the corrected m was normalized to the average cell titer, the p2 copy number, and the target size for functional leu2* reversion (2.33 bp). 95% confidence intervals were similarly scaled.
To identify error-prone TP-DNAP2s, a small library of TP-DNAP2s diversified at locations hypothesized to be responsible for DNAP fidelity was screened. […] Four distinct site-saturation mutagenesis libraries were generated, each diversifying S370, Y424, L474, or F882 in TP-DNAP2 encoded on pGA55-reTP-DNAP2. Due to unsuccessful attempts to generate a strain with a full deletion of p2-encoded TP-DNAP2 and simultaneous integration of mKate, URA3, and leu2*, each library was transformed into GA-Y021 for convenient screening. However, since GA-Y021 still encodes wt TP-DNAP2 on p2-delORF1-mUL*, p2 mutation rates measured in this format are the result of in tandem replication of p2 by wt TP-DNAP2 and each TP-DNAP2 variant encoded in trans. 6-fold coverage of each library was maintained by picking 190 yeast colonies and passaging under selection for URA3 to stabilize the copy number of p2-delORF1-mUL* in the presence of the newly introduced TP-DNAP2 variants. […]

B1: S370P: TP-DNAP2 variant (protein, listed as Kluyveromyces lactis)
chain: MNDELAFLNSQIDDYSDDIEFLRTEVFRINRYSKSIYSLMKNSSKEAIKETIEFNKYGQEIHSKIKEKEISLIEAIKLMEKKYKYLRSLNKTKDKSKKKKIHTKDIETLKTIYKTKADFDIRNFKNAETFTYENYSLLIPSEKELIDLIPEIEEDYSYYFYVSLTITGPTIFGGVTRKVPIIDTYGDINKDFYNKIKENITKVLDRVPFYEEKESEIICKKVLITLTVNKWESIDKWYKNVKSKSKKFKDFTLFLASDTSKNCVQQCVEYLGGKWNTNYSLEKMIPQQKIVTYIPLLMDIQYVQSMEDLISDFDEPNTDCKNIARLLKWNGHMGVITKIDKDVKINRIQRKRIIDVENKEVKEVFFDIEPFSDETKHQIPYLICWSYLGELYYRTGKNCIKEFVEEILSYNVDIILYAWYGSGYDYQHVLPYMKSKCIKDKYIIKNNMITYGELYYENAIIYLKDPYLFILTSLDKASKAFNVINKGEFPHSIIHSWEDLNKILPNWVKIQKRMIEYKDDNKLNIYYKNIEIFENDRNYNTILENAIEYCKVDVLAMEKVWIKFKKLLEKNLNITVSVKTFTLSQLSMKIMESKLPKYVKLYVPTLEEYSKIRNAIYGGRVISKNGIYEENIVYADVVSLYPSAMKLLKHSYGKPKLVDYIDFEKHGIYRVTLLNKHDQEPKNYLNFVPRRINRKLTWEWFKIHEGWYHTYDLIIAKSEGFDIYCHEGFEYPEKDYIFNDFIDTLYSMKETHTACSCEEQPCPIRMVAKIALNGGGYGKFVQKPIDKEIYIVKRDVVAGECDKLQENENGEICIGKRLVKRPLFYNLDSENYDKMIIEKEDEPIYSTQCGISILSASRYRLYKLCKQFENIDIIYSDTDSIFVKQKSVDWELFKSKCGSELGQLDSTIDDTKNAIISKMYIGGAKMYAFEYLNNKNKLITKLHCKGVPNYMLSLNQFKYLMESPDNTIAYKFEIIRRKLVNVITKDLIKDIKQT
Q: Which “Per-base substitution rate pf p2” value does the source give for B1 here?
A: The value was 50.1 (32.4-70.4) ×10^−10.

Q: What about the Fold increase of the same molecule?
A: The Fold increase was 8.4.

B2: S370K: TP-DNAP2 variant (protein, listed as Kluyveromyces lactis)
chain: MNDELAFLNSQIDDYSDDIEFLRTEVFRINRYSKSIYSLMKNSSKEAIKETIEFNKYGQEIHSKIKEKEISLIEAIKLMEKKYKYLRSLNKTKDKSKKKKIHTKDIETLKTIYKTKADFDIRNFKNAETFTYENYSLLIPSEKELIDLIPEIEEDYSYYFYVSLTITGPTIFGGVTRKVPIIDTYGDINKDFYNKIKENITKVLDRVPFYEEKESEIICKKVLITLTVNKWESIDKWYKNVKSKSKKFKDFTLFLASDTSKNCVQQCVEYLGGKWNTNYSLEKMIPQQKIVTYIPLLMDIQYVQSMEDLISDFDEPNTDCKNIARLLKWNGHMGVITKIDKDVKINRIQRKRIIDVENKEVKEVFFDIEKFSDETKHQIPYLICWSYLGELYYRTGKNCIKEFVEEILSYNVDIILYAWYGSGYDYQHVLPYMKSKCIKDKYIIKNNMITYGELYYENAIIYLKDPYLFILTSLDKASKAFNVINKGEFPHSIIHSWEDLNKILPNWVKIQKRMIEYKDDNKLNIYYKNIEIFENDRNYNTILENAIEYCKVDVLAMEKVWIKFKKLLEKNLNITVSVKTFTLSQLSMKIMESKLPKYVKLYVPTLEEYSKIRNAIYGGRVISKNGIYEENIVYADVVSLYPSAMKLLKHSYGKPKLVDYIDFEKHGIYRVTLLNKHDQEPKNYLNFVPRRINRKLTWEWFKIHEGWYHTYDLIIAKSEGFDIYCHEGFEYPEKDYIFNDFIDTLYSMKETHTACSCEEQPCPIRMVAKIALNGGGYGKFVQKPIDKEIYIVKRDVVAGECDKLQENENGEICIGKRLVKRPLFYNLDSENYDKMIIEKEDEPIYSTQCGISILSASRYRLYKLCKQFENIDIIYSDTDSIFVKQKSVDWELFKSKCGSELGQLDSTIDDTKNAIISKMYIGGAKMYAFEYLNNKNKLITKLHCKGVPNYMLSLNQFKYLMESPDNTIAYKFEIIRRKLVNVITKDLIKDIKQT
Q: What does the source list for B2?
A: Per-base substitution rate pf p2: 26.2 (18.0-35.4) ×10^−10; Fold increase: 4.4

B3: S370E: TP-DNAP2 variant (protein, listed as Kluyveromyces lactis)
chain: MNDELAFLNSQIDDYSDDIEFLRTEVFRINRYSKSIYSLMKNSSKEAIKETIEFNKYGQEIHSKIKEKEISLIEAIKLMEKKYKYLRSLNKTKDKSKKKKIHTKDIETLKTIYKTKADFDIRNFKNAETFTYENYSLLIPSEKELIDLIPEIEEDYSYYFYVSLTITGPTIFGGVTRKVPIIDTYGDINKDFYNKIKENITKVLDRVPFYEEKESEIICKKVLITLTVNKWESIDKWYKNVKSKSKKFKDFTLFLASDTSKNCVQQCVEYLGGKWNTNYSLEKMIPQQKIVTYIPLLMDIQYVQSMEDLISDFDEPNTDCKNIARLLKWNGHMGVITKIDKDVKINRIQRKRIIDVENKEVKEVFFDIEEFSDETKHQIPYLICWSYLGELYYRTGKNCIKEFVEEILSYNVDIILYAWYGSGYDYQHVLPYMKSKCIKDKYIIKNNMITYGELYYENAIIYLKDPYLFILTSLDKASKAFNVINKGEFPHSIIHSWEDLNKILPNWVKIQKRMIEYKDDNKLNIYYKNIEIFENDRNYNTILENAIEYCKVDVLAMEKVWIKFKKLLEKNLNITVSVKTFTLSQLSMKIMESKLPKYVKLYVPTLEEYSKIRNAIYGGRVISKNGIYEENIVYADVVSLYPSAMKLLKHSYGKPKLVDYIDFEKHGIYRVTLLNKHDQEPKNYLNFVPRRINRKLTWEWFKIHEGWYHTYDLIIAKSEGFDIYCHEGFEYPEKDYIFNDFIDTLYSMKETHTACSCEEQPCPIRMVAKIALNGGGYGKFVQKPIDKEIYIVKRDVVAGECDKLQENENGEICIGKRLVKRPLFYNLDSENYDKMIIEKEDEPIYSTQCGISILSASRYRLYKLCKQFENIDIIYSDTDSIFVKQKSVDWELFKSKCGSELGQLDSTIDDTKNAIISKMYIGGAKMYAFEYLNNKNKLITKLHCKGVPNYMLSLNQFKYLMESPDNTIAYKFEIIRRKLVNVITKDLIKDIKQT
Q: Which results are given for B3?
A: Per-base substitution rate pf p2: 27.9 (19.7-37.2) ×10^−10; Fold increase: 4.7

B4: S370R: TP-DNAP2 variant (protein, listed as Kluyveromyces lactis)
chain: MNDELAFLNSQIDDYSDDIEFLRTEVFRINRYSKSIYSLMKNSSKEAIKETIEFNKYGQEIHSKIKEKEISLIEAIKLMEKKYKYLRSLNKTKDKSKKKKIHTKDIETLKTIYKTKADFDIRNFKNAETFTYENYSLLIPSEKELIDLIPEIEEDYSYYFYVSLTITGPTIFGGVTRKVPIIDTYGDINKDFYNKIKENITKVLDRVPFYEEKESEIICKKVLITLTVNKWESIDKWYKNVKSKSKKFKDFTLFLASDTSKNCVQQCVEYLGGKWNTNYSLEKMIPQQKIVTYIPLLMDIQYVQSMEDLISDFDEPNTDCKNIARLLKWNGHMGVITKIDKDVKINRIQRKRIIDVENKEVKEVFFDIERFSDETKHQIPYLICWSYLGELYYRTGKNCIKEFVEEILSYNVDIILYAWYGSGYDYQHVLPYMKSKCIKDKYIIKNNMITYGELYYENAIIYLKDPYLFILTSLDKASKAFNVINKGEFPHSIIHSWEDLNKILPNWVKIQKRMIEYKDDNKLNIYYKNIEIFENDRNYNTILENAIEYCKVDVLAMEKVWIKFKKLLEKNLNITVSVKTFTLSQLSMKIMESKLPKYVKLYVPTLEEYSKIRNAIYGGRVISKNGIYEENIVYADVVSLYPSAMKLLKHSYGKPKLVDYIDFEKHGIYRVTLLNKHDQEPKNYLNFVPRRINRKLTWEWFKIHEGWYHTYDLIIAKSEGFDIYCHEGFEYPEKDYIFNDFIDTLYSMKETHTACSCEEQPCPIRMVAKIALNGGGYGKFVQKPIDKEIYIVKRDVVAGECDKLQENENGEICIGKRLVKRPLFYNLDSENYDKMIIEKEDEPIYSTQCGISILSASRYRLYKLCKQFENIDIIYSDTDSIFVKQKSVDWELFKSKCGSELGQLDSTIDDTKNAIISKMYIGGAKMYAFEYLNNKNKLITKLHCKGVPNYMLSLNQFKYLMESPDNTIAYKFEIIRRKLVNVITKDLIKDIKQT
Q: B4 was tested. Which “Per-base substitution rate pf p2” value did it give?
A: Its value is 31.9 (22.4-42.5) ×10^−10.

Q: And the Fold increase?
A: The Fold increase was 5.3.
